Data published in PMC4140821 (2014).
Values belong to the binder of their own block, whether it stands above or below them.

Key:
Assay in all cases: ITC
CSN5^ΔC,R106T = CSN5^ΔC,R106T (human, UniProt Q92905 1-257, R106T)
CSN6^ΔC,H44A = CSN6^ΔC,H44A (human, UniProt Q7L5N1 31-211, H44A)
CSN6^ΔC,V115E = CSN6^ΔC,V115E (human, UniProt Q7L5N1 31-211, V115E)

Chain of CSN5^ΔC,R106T (Q92905 1-257 R106T): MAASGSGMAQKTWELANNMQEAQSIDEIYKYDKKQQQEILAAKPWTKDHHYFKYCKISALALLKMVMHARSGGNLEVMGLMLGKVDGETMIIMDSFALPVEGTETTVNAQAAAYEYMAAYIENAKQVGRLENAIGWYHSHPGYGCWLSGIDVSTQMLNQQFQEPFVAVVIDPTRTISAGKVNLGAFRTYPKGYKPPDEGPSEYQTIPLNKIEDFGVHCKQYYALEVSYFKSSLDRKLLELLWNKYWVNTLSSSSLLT

- Kd (CSN5^ΔC,R106T): 5.8 µM
B1: CSN6^ΔC (human CSN6 31–211 fragment) (domain or fragment)
chain: MACGVTGSVSVALHPLVILNISDHWIRMRSQEGRPVQVIGALIGKQEGRNIEVMNSFELLSHTVEEKIIIDKEYYYTKEEQFKQVFKELEFLGWYTTGGPPDPSDIHVHKQVCEIIESPLFLKLNPMTKHTDLPVSVFESVIDIINGEATMLFAELTYTLATEEAERIGVDHVARMTATGS

- Kd (CSN6^ΔC,H44A): 9.2 µM
- Kd (CSN6^ΔC,V115E): 29 µM
B2: CSN5^ΔC,WT (human CSN5 1–257 fragment) (domain or fragment)
chain: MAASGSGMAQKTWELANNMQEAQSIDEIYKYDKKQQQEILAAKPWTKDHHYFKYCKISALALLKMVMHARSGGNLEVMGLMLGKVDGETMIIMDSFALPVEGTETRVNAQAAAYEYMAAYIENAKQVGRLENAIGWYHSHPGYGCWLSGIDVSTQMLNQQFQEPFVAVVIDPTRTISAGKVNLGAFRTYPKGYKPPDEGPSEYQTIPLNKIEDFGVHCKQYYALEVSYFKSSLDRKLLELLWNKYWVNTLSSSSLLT
